Measured values reported in patent US20140328797A1.

Molecular target: HRV-A and B strains tested
Test: binding to HRV; format not stated in this example

B1: TCN-711 (6893_E11) (antibody, human IgG1, lambda, V domains shown)
VH: QVQLHQWGTGVLKPSGTLSLTCGVYGGSLTDFYWTWIRQSPARGLEWLGEIDRDGATYYNPSLKSRITISIDTSKKQFSLNLRSVTAADRAVYYCARRPMLRGVWGNFRSNWFDPWGQGTQVTVSS
VL: QSVLTQPPSVSAAPGQKVSISCSGSSSNIGYSYVSWYQQVPGSAPKLLIYENNKRPSGIPDRFSASKSGTSATLDITGLQTGDEADYYCGTWDTRLFGGVFGGGTKLTVLG
EC50: 0.007 to 0.07 nM
